Ends that are not written are not given here.
Key:
Tau-P301L = biological target: T1, Tau-P301L (Homo sapiens, UniProt P10636, P618L); test: Thioflavine T fluorescence assay of seeded Tau-P301L aggregation; type: biochemical; settings: for Tau-P301L aggregate formation (ThT fluorescence intensity): Tau-P301L 5 μM with Tau seeds, peptide 50 μM, fluorescence at 24 h, ±SEM, n=3, remaining aggregation
T1 construct: made in house; host or cells: Escherichia coli BL21
Text: Protein purification. Recombinant wild-type Tau and Tan with P301L mutation proteins was expressed in Escherichia coli (E. coli, BL21) and purified as described; Goedert M, Jakes R (1990) Expression of separate isoforms of human tau protein: correlation with the tau pattern in brain and effects on tubulin polymerization. EMBO J 9, 4225-4230. Combs B, Tiernan C T, Hamel C, Kanaan N M (2017) Production of recombinant tau oligomers in vitro. Methods Cell Biol 141, 45-64.
Effect of P35 on Tau-P30IL aggregation. Tau-P301L protein is used in all aggregation assays. Tau seeds are prepared during a first polymerization: 15UM of monomeric Tau-P301L was incubated at 37° C. in polymerization buffer (PI-buffer): NaH2PO4 25 mM, Na2HPO4 25 mM, NaCl 25 mM, EDTA SmM PH 6,6 with heparin 7.5 μM, Thioflavine-T 50 μM, and Dithiothreitol (DTT) 0.3 mM in a final volume of 100 μl. Fluorescence was monitored every 30 minutes during 25 hours at 480 nm (excitation at 450 nm) using Perkin-Elmer Endvision spectrophotometer. After polymerization, samples (100 μl) were centrifuged at 20,000 g for 1 hour at 4° C. The pellets were resuspended in 100 μl of PI-buffer and sonicated (Branson sonicator) at 40%, 3 times of 1 second, in order to obtain small pre-formed Tau fibrils used as seeds for the second polymerization assay. A volume of 18% of Tau seeds was pre-incubated in the same buffer of the first polymerization, with or without polypeptides, during 1 h at 37° C. Subsequently, 5 μM of monomeric Tau-P301L was added and fluorescence was monitored in the same conditions.

[1] = tested on: hTau-P301S mouse DRG neurons; test: Western blot of sarkosyl-insoluble Tau fraction of peptide-treated DRG neurons; type: cell-based; settings: peptide 200 nM in cell medium for 15 days, compared to scramble control
Description: DRG culture and western-blot analyses. DRG neurons were collected from hTau-P301S mice spinal cords as described by Sleigh and dissociated with collagenase (ThermoFisher Scientific, 17100-017) 2900 U/mL during 90 min followed by 0.1% trypsin (Life Technologies, 15090-046) 3 mM EDTA containing DNaseI (50 μg/mL; Sigma-Aldrich, 04536282001) for 5 min; Sleigh J N, Weir G A, Schiavo G, A simple, step-by-step dissection protocol for the rapid isolation of mouse dorsal root ganglia. BMC RES NOTES, 2016, 9, 82.
Cell treatment was stopped using 1×PBS (VWR, X0515-500) supplemented with 2% horse serum (ThermoFisher Scientific, 16050-122), and DRG neurons were dissociated with a Pasteur pipette. Cells were then centrifuged for 5 min at 1,300 g and the pellet was resuspended in DMEM (Fisher Scientific, 12077549) with 9% fetal bovine serum. After filtration on a 0.40 μm filter followed by centrifugation 5 min at 1,300 g. the pellet was resuspended in neurobasal medium complemented with B27 (50×), L-glutamine (100×) (Life Technologies, 11530536 and 25030024 respectively), NGF 2.5 S (27 ng/ml; ThermoFisher, 13257-019) and distributed in 2 wells of a 6-well culture plate. Cell cultures were maintained for 15 days in vitro (DIV) and the cell medium complemented with mitomycine C (Sigma-Aldrich, M4287) and 5-Fluorodeoxy-uridine (Sigma-Aldrich, F0503) was changed twice a week. Cells were harvested by scraping, centrifuged for 10 min at 200 g and the pellet was homogenized using PotterElvehjem 18 in cold extraction buffer (50 mM Tris-HCl, pH 7.5, 100 mM NaCl, 0.5% SDS, 2 mM CaCl2, 2 mM MgCl2) supplemented with a cocktail of protease and phosphatase inhibitors (Roche, 11836145001). […] Each sample was analyzed on a 10% SDS Page gel and transferred onto iBlot™ Gel Transfer membranes (Invitrogen, IB23001, IB24002). […] Images were recorded with the GeneGnome5 (Syngene). Quantification was performed using Genetools analysis software (Syngene).
DRGs treatment with peptides. […] After cell lysis, lysates were then analyzed by western-blot as described in “DRG culture and western-blot analyses”.

T1 sequence (P10636 1-441 isoform P10636-8 P301L): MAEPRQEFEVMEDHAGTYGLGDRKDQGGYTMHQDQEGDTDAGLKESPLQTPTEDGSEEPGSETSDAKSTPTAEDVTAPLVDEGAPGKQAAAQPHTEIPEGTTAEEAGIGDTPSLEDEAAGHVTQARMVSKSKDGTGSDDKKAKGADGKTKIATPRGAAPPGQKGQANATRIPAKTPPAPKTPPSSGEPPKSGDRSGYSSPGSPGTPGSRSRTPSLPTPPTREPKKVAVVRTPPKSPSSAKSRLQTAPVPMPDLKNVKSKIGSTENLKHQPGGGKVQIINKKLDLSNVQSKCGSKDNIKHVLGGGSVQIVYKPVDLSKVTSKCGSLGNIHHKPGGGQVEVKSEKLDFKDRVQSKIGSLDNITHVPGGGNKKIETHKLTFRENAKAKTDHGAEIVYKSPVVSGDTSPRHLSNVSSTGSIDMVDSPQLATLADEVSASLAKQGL

Molecule	Tau-P301L aggregate formation (ThT fluorescence intensity) (Tau-P301L) [%]	insoluble Tau forms / Tau-P301S aggregation (western blot, sarkosyl-insoluble fraction) [1]	other results
AKPNEGAIVEVALEGYYKDKLFDQRELRFEIGEGE (Ac-AKPNEGAIVEVALEGYYKDKLFDQRELRFEIGEGE; not fully specified (C-terminus); listed as Homo sapiens) [P35]	80.6		
YARAAARQARA-P35 (YARAAARQARAAKPNEGAIVEVALEGYYKDKLFDQRELRFEIGEGE) [YARA-P35]		tends to show a decrease of Tau-P301S aggregation	
IRFKVLEGLYGEVDEAKEGNEAKAEGLQEYPDFIR [P35sc, reference compound]	91.4		
AKPNEGAIVEVALEGYYKDKLFDQRELRFEIGEGENLDLPYGLERAIQRM (listed as Homo sapiens) [P50]			effect on Tau-P301L aggregation in vitro (in words) (Tau-P301L; in vitro incubation of Tau-P301L with peptide, data not shown): comparable effects than P35
YARAAARQARA-P50 (peptide) YARAAARQARAAKPNEGAIVEVALEGYYKDKLFDQRELRFEIGEGENLDLPYGLERAIQRM		decrease of insoluble Tau forms	insoluble Tau forms / Tau-P301S aggregation (western blot, sarkosyl-insoluble fraction) ([1]; listed as YARA-PSO): tends to show a decrease of Tau-P301S aggregation
